Source: patent US20240368668A1, “SUBSTRATES AND BIOMARKERS OF ADAMTS7” (The Broad Institute, Inc., priority 2021, published 2024)

Target: T1, mouse ADAMTS7 (Mus musculus, UniProt Q68SA9)
T1 construct: Full-length mouse Adamts7 1-1857 (Uniprot Q68SA9, WT or E373Q catalytic mutant); expressed in transfected cells; host or cells: Human Coronary Artery Smooth Muscle Cells (HCA-SMC, Lonza), adenovirus 50 MOI
T1 sequence (Q68SA9 221-1657): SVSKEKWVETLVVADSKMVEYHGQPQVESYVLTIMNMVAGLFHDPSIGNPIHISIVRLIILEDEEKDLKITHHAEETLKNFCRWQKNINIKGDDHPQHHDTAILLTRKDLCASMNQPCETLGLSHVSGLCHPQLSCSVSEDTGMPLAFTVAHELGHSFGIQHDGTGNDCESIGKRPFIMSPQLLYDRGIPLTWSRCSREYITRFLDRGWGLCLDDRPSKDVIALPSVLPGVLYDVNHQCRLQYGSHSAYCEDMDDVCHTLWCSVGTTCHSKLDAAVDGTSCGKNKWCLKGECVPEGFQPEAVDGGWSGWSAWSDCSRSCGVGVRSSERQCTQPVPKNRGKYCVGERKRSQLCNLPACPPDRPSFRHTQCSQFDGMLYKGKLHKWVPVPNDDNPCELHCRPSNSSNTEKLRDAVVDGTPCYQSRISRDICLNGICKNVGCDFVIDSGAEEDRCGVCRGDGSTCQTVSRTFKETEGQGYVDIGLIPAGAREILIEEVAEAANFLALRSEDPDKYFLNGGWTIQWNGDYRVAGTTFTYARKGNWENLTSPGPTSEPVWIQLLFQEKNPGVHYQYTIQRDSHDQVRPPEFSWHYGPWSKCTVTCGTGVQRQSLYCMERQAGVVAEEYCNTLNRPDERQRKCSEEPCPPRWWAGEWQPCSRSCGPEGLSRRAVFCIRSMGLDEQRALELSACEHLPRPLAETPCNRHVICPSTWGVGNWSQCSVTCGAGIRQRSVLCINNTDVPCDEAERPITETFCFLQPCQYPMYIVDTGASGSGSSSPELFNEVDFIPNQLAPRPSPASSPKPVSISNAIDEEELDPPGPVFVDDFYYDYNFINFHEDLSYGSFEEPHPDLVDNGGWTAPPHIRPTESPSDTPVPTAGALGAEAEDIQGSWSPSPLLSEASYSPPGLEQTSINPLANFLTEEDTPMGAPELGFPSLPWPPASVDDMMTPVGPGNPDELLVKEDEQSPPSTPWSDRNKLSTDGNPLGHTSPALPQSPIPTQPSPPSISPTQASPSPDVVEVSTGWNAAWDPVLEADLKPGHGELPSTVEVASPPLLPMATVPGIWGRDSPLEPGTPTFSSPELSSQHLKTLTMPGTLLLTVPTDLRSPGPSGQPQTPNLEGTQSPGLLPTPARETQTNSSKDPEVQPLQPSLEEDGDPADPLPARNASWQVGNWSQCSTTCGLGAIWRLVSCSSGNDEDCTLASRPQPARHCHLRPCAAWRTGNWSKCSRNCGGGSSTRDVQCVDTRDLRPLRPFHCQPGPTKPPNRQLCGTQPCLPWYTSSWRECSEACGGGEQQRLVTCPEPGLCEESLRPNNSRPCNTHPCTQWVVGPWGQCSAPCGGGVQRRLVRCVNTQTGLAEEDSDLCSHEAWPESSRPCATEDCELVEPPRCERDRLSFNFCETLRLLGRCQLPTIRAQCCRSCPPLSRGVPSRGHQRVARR
Test: TMT10 TAILS N-terminomics, HUVEC experiment (process replicates, trypsin/AspN digest)
Format: cell-based, human
Details: HUVEC TAILS HC; log fold change of N-terminal peptide, Ad-mADAMTS7 WT over Luc
Summary of the method: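 Full-length mouse ADAMTS7 (WT or E373Q mutant, C-terminal 3xFLAG) or luciferase was transduced via adenovirus, 50 MOI, into HCA-SMC (SMC1, SMC2) or HUVEC. SMC1: pooled media, technical triplicates 400 ug; SMC2: process triplicates 300 ug; HUVEC: process triplicates 200 ug, bFGF2 10 ng/ml.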

Substance | logFC.mWT.over.Luc
THBS2_290 (LSENLKR; listed as Homo sapiens) | 5.05
MAP4_815 (AVASTGPSSR; listed as Homo sapiens) | 2.87
NUCB1_389 (LQQAVLHMEQR; listed as Homo sapiens) | 1.32
LTBP2_79 (VAGLQPVER; listed as Homo sapiens) | 1.13
MAP4_816 (VASTGPSSR; listed as Homo sapiens) | 2.13
SERBP1_56 (QAAAQTNSNAAGKQLR; listed as Homo sapiens) | 1.23
LTBP3_208 (FLVPLGPGQISA; listed as Homo sapiens) | 1.54
NUCB1_317 (FLASTQR; listed as Homo sapiens) | 2.71
COL18A1_1505 (LQPPVVQLHDSNPYPR; listed as Homo sapiens) | 3.05
NID1_360 (FHQQHPQVI; listed as Homo sapiens) | 1.48

More lines, now with the values ahead:

logFC.mWT.over.Luc | Substance
0.90 | SPOCK1_27 (LAGGAGPNHGNFL; listed as Homo sapiens)
2.80 | NID2_291 (HSSVPLGR; listed as Homo sapiens)
1.84 | LTBP2_250 (SAAGEGTLAR; listed as Homo sapiens)
2.47 | LTBP2_502 (LVENSVETRPPPWLPASPGHSLW; listed as Homo sapiens)
1.04 | SRGN_59 (LLPGESNKIPR; listed as Homo sapiens)
